Our source for the EC50 values is patent US20190185898A1.

A word on the EC50: it is the concentration at which the effect is half-maximal.

The assay deals with core-fucosylated RNase B (21) (bovine) (UniProt P61823). In words: ELISA, glycoprotein coated, AAL-biotin in serial dilution. Background: ELISA stands for enzyme-linked immunosorbent assay.
Chain of core-fucosylated RNase B (21) (bovine) (P61823 27-150): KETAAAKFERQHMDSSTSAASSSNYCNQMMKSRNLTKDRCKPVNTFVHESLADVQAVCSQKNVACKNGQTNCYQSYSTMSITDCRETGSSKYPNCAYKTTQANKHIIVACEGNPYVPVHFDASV

B1: Aleuria aurantia lectin (AAL) (protein, UniProt P18891 2-313, looked up)
chain: PTEFLYTSKIAAISWAATGGRQQRVYFQDLNGKIREAQRGGDNPWTGGSSQNVIGEAKLFSPLAAVTWKSAQGIQIRVYCVNKDNILSEFVYDGSKWITGQLGSVGVKVGSNSKLAALQWGGSESAPPNIRVYYQKSNGSGSSIHEYVWSGKWTAGASFGSTVPGTGIGATAIGPGRLRIYYQATDNKIREHCWDSNSWYVGGFSASASAGVSIAAISWGSTPNIRVYWQKGREELYEAAYGGSWNTPGQIKDASRPTPSLPDTFIAANSSGNIDISVFFQASGVSLQQWQWISGKGWSIGAVVPTGTPAGW
modifications: biotin label (AAL-biotin), site not stated
Take B1: the half-maximal effective concentration (EC50) amounted to 275 µM.
